Test results: patent US20080248465A1

Columns and labels:
human FcγRIIb (human) [1] = molecular target: human FcγRIIb (human) (UniProt P31994); assay: flow cytometry, background staining on EBV-transformed B cells of a 2B.4/2B.4 donor
human FcγRIIb (human) [2] = molecular target: human FcγRIIb (human) (UniProt P31994); assay: flow cytometry, background staining on peripheral B lymphocytes of 2B.1/2B.1 donors
human FcγRIIb (human) [3] = molecular target: human FcγRIIb (human) (UniProt P31994); assay: flow cytometry, background staining on peripheral B lymphocytes of 2B.1/2B.4 donors
human FcγRIIb (human) [4] = molecular target: human FcγRIIb (human) (UniProt P31994); assay: flow cytometry, background staining on EBV-transformed B cells of 2B.1/2B.4 donors
human FcγRIIb (human) [5] = molecular target: human FcγRIIb (human) (UniProt P31994); assay: flow cytometry, background staining on EBV-transformed B cells of 2B.1/2B.1 donors
[6] = molecular target: human FcγRIIa, R131 allele (human) (UniProt P12318); assay: flow cytometry on FcγRIIa (R131) transfectants
[7] = molecular target: human FcγRIIa, H131 allele (human) (UniProt P12318); assay: flow cytometry on FcγRIIa (H131) transfectants
human FcγRIIb (human) [8] = molecular target: human FcγRIIb (human) (UniProt P31994); assay: flow cytometry on FcγRIIb transfectants

UniProt P31994, sequence (P31994 43-310): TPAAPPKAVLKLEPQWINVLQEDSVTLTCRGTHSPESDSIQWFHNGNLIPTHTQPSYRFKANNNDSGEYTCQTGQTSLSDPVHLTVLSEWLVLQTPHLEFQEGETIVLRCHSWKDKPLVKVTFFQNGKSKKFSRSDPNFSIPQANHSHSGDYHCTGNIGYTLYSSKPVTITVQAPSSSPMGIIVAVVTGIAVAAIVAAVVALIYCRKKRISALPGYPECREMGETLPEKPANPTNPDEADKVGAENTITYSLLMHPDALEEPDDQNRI

MFI (human FcγRIIb (human) [1]) | MFI (human FcγRIIb (human) [2]) | MFI (human FcγRIIb (human) [3]) | MFI (human FcγRIIb (human) [4]) | MFI (human FcγRIIb (human) [5]) | fold difference against mAb IV.3 [6] | fold difference against mAb IV.3 [7] | fold staining against mAb IV.3 (human FcγRIIb (human) [8]) | Substance
3.9 MFI | 4.1 MFI | 3.9 MFI | 3.6 MFI | 3.6 MFI |  |  |  | mIgG1 isotype control (antibody)
 |  |  |  |  | < 2 fold | < 2 fold | 10 fold | mAb AT-10 (antibody)
